The record followed here is patent publication US20080085859A1, “Drug Promoting Ceramide Transport, Base Sequence for Producing the Drug, Method of Measuring Activity of Promoting Ceramide Release and Method of Measuring Activity of Promoting Intermembrane Ceramide Transfer” (JAPAN SCIENCE AND TECHNOLOGY AGENCY, priority 2003, published 2008).

One assay relates to LY-A cell. The assay can be described thus: recovery of ceramide transport function of LY-A cell by hCERT stable expression. The assay is classed as cell-based, Chinese hamster. The conditions noted are these: FIG. 9. From the text:
Also in the original LY-A cell to which retrovirus receptor has not been introduced, it has been ascertained as described below that ceramide transport function is recovered by hCERT expression. hCERT inserted pcDNA3.1/Neo plasmid was introduced into LY-A cell by performing lipofection, after G418 resistant cell was selected, transformed strain LY-A/hCERT was purified by a limited-dilution. Subsequently, the measurement of the sensitivity to MCD, metabolism labeling experiment of lipid using [^14C] serine and [^14C] choline and cell labeling using C5-DMB-Cer and fluorescene microscopy observation were similarly performed.

The test system of another assay is SM synthase. The assay can be described thus: SM synthase activity, C6-NBD-Cer substrate, membrane fractions. The assay is classed as biochemical, Chinese hamster. Conditions: LY-A2/hCERT versus LY-A2 and CHO-K1 cells, FIG. 5. The procedure:
The assay of SM synthase activity was carried out using C6—NBD-Cer as a substrate by a method of Hanada et al (Biochim. Biophys. Acta 1086, 151-156, 1991). However, the membrane fractions prepared respectively from CHO-K1 cell, LY-A2 cell and LY-A2/hCERT cell were used as an enzyme source.

B1: hCERT protein: human CERT protein having an amino acid sequence of SEQ ID NO:1 (protein)
chain: MSDNQSWNSSGSEEDPETESGPPVERCGVLSKWTNYIHGWQDRWVVLKNNALSYYKSEDETEYGCRGSICLSKAVITPHDFDECRFDISVNDSVWYLRAQDPDHRQQWIDAIEQHKTESGYGSESSLRRHGSMVSLVSGASGYSATSTSSFKKGHSLREKLAEMETFRDILCRQVDTLQKYFDACADAVSKDELQRDKVVEDDEDDFPTTRSDGDFLHSTNGNKEKLFPHVTPKGINGIDFKGEAITFKATTAGILATLSHCIELMVKREDSWQKRLDKETEKKRRTEEAYKNAMTELKKKSHFGGPDYEEGPNSLINEEEFFDAVEAALDRQDKIEEQSQSEKVRLHWPTSLPSGDAFSSVGTHRFVQKVEEMVQNHMTYSLQDVGGDANWQLVVEEGEMKVYRREVEENGIVLDPLKATHAVKGVTGHEVCNYFWNVDVRNDWETTIENFHVVETLADNAIIIYQTHKRVWPASQRDVLYLSVIRKIPALTENDPETWIVCNFSVDHDSAPLNNRCVRAKINVAMICQTLVSPPEGNQEISRDNILCKITYVANVNPGGWAPASVLRAVAKREYPKFLKRFTSYVQEKTAGKPILF
modifications: HeLa cell
Consider B1, for which, in the assay with LY-A cell, the “reactivity with respect to MCD, SM biosynthesis, C5-DMB-Cer transfer from ER to Golgi apparatus region” value is “recovered to the nature of the wild type”. Besides, in the assay with SM synthase, the “activity of the SM synthase” value is recorded as “no difference”.
